# Test results published in patent US20250115680A1 (PROFOUNDBIO US, published 2025).
# How the values were obtained:
# [1] = biological target: T1, human PTK7 extra-cellular domain (ECD) linked to His tag (human, UniProt Q13308 31-704); test: ELISA screening of hybridoma supernatants on human PTK7-his
# T1 construct: extracellular domain; also called hPTK7-his; human PTK7-his protein; not shown: His tag
# T1 sequence (looked up): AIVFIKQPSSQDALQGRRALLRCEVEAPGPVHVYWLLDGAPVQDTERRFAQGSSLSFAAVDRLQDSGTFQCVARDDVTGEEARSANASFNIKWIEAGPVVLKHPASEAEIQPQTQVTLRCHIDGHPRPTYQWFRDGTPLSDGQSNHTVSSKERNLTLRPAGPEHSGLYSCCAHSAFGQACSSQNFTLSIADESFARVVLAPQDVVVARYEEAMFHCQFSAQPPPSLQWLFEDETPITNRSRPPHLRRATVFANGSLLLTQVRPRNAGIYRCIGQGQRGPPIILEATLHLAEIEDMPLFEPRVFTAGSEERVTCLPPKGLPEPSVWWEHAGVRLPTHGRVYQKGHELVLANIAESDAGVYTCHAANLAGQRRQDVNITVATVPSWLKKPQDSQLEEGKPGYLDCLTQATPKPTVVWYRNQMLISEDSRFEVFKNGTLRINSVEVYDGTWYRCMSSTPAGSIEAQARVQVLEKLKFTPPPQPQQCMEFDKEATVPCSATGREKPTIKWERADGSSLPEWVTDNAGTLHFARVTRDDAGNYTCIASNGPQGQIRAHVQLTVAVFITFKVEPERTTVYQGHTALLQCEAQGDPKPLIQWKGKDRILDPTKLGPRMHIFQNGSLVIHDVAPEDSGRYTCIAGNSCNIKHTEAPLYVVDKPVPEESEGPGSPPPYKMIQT
# Protocol: The cells were resuspended with an appropriate amount of electroporation buffer to ensure the cell concentration of about 2×10⁷ cells/mL. The cell suspension was added to a 9 mL electroporation tank for fusion. After fusion, the cell suspension was transferred to 20 mL RPMI 1640 complete medium containing 20% FBS and then left at room temperature for 20 min. The fused cells were resuspended with RPMI 1640 medium containing 1×HAT, 1×BIOMYC3, and 20% FBS. The cell suspension was added to several 96-well cell culture plates at 100 ul/well to ensure that the cell volume per well was about 5×10⁴ cells/well, and the plates were placed in a 37° C. cell incubator. After 7 days, additional 100 μL of RPMI 1640 complete medium containing 20% FBS, 1×HAT, and 1×BIOMYC-3 was added to each well. After 10 days, the cell culture supernatants from hybridoma parent clones were collected and used for screening by binding to human and cynomolgus monkey PTK7-his protein by ELISA.
# [2] = biological target: T2, human PTK7 on the surface of PTK7-expressing tumor cell lines (human, UniProt Q13308 31-1070); test: flow cytometry on MDA-MB-468 cells
# T2 construct: whole, on cells
# T2 sequence (looked up): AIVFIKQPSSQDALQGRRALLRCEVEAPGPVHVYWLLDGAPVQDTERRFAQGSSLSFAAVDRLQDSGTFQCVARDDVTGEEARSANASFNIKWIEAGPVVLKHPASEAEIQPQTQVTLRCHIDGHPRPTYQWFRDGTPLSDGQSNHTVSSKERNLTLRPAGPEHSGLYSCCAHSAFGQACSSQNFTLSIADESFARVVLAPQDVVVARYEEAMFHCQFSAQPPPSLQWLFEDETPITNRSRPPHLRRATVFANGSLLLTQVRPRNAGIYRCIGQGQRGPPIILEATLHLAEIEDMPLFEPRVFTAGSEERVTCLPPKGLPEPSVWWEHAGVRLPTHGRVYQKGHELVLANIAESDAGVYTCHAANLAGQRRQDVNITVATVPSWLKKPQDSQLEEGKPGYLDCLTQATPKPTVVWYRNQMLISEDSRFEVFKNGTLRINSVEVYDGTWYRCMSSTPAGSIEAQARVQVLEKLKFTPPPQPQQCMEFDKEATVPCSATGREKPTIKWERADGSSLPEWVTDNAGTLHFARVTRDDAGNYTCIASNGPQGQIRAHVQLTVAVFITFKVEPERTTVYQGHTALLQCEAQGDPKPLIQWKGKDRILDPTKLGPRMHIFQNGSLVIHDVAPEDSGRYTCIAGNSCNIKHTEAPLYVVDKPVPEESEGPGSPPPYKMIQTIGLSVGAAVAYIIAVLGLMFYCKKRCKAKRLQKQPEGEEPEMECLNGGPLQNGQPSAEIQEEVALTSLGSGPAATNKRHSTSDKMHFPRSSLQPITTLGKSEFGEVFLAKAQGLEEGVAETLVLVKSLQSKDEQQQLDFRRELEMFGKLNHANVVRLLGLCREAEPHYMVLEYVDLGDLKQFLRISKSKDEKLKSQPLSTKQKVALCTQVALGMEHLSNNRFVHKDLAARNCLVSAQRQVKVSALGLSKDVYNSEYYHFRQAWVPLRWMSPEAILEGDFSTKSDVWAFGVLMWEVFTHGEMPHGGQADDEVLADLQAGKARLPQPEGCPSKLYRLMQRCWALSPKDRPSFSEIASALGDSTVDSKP
# [3] = biological target: T2, human PTK7 on the surface of …; test: cell-based or functional assay
binding result [1],binding result [2],Binder,"IC50 of in vitro cytotoxicity (Cell-titre Glo, 96 h), Detroit 562 cells [3]","IC50 of in vitro cytotoxicity (Cell-titre Glo, 96 h), MDA-MB-468 cells [3]","IC50 of in vitro cytotoxicity (Cell-titre Glo, 96 h), OVCAR-3 cells [3]","IC50 of in vitro cytotoxicity (Cell-titre Glo, 96 h), PA-1 cells [3]","IC50 of in vitro cytotoxicity (Cell-titre Glo, 96 h), SNG-M cells [3]","IC50 of in vitro cytotoxicity (Cell-titre Glo, 96 h), SW780 cells [3]"
binds,binds,"murine antibody m2C8 (antibody, V domains shown, Mouse hybridoma clone, tested as culture supernatant) VH: QIQLVQSGPELKKPGETVKISCKASGYTFTTYGMSWVKQAPGKGLKWMGWINTHSGVPTYVDEFKGRSAFSLETSASTAYLQINNLKNEDTATYFCARSPFDYGSRGAWFVYWGQGTLVTVSS VL: DVLMTQTPLSLPVSLGDQASISCRSSQSIVHNNGDTYLEWYLQKPGQSPKLLIYKVSNRFPGVPDRFSGSGSGTDFTLKISRVEAEDLGLYYCFQGSHVPWTFGGGTKLEIK",–,–,–,–,–,–
binds,binds,"murine antibody m2C5 (antibody, V domains shown, Mouse hybridoma clone, tested as culture supernatant) VH: EVQLLSSGPELVTPGASVKISCKASGYTFTDYYINWLKQSHGKSLEWIGDINPNSGGPVYNQKFMAKATLTVDKTSNTAYMELRSLTSEDSAVYYCARGDYYGSNYNYWGQGTTLTVSS VL: DILLTQSPAILSVSPGERVSFSCRASQNIGTSIHWYQQRTNGSPRLLIKFASESISGIPSRFSGSGSGTDFALTINSVESEDIADYYCQQSNNWPYTFGGGTKLEIK",–,–,–,–,–,–

# The remaining lines, values behind:
Binder,binding result [1],binding result [2],"IC50 of in vitro cytotoxicity (Cell-titre Glo, 96 h), Detroit 562 cells [3]","IC50 of in vitro cytotoxicity (Cell-titre Glo, 96 h), MDA-MB-468 cells [3]","IC50 of in vitro cytotoxicity (Cell-titre Glo, 96 h), OVCAR-3 cells [3]","IC50 of in vitro cytotoxicity (Cell-titre Glo, 96 h), PA-1 cells [3]","IC50 of in vitro cytotoxicity (Cell-titre Glo, 96 h), SNG-M cells [3]","IC50 of in vitro cytotoxicity (Cell-titre Glo, 96 h), SW780 cells [3]"
"murine antibody m13C4 (antibody, V domains shown, Mouse hybridoma clone, tested as culture supernatant) VH: EVKLVESGGGLVKPGGSLKLSCAASGFAFSTYDMFWFRQTPEKRLEWVATISSGGGYTYYPGSVKGRFTISRDNARNTLYLQMSSLRSEDTALYYCVRPLLRDSYFYFDVWGAGTTVTVSS VL: DIVMTQSPAIMSTSPGEKVTMTCRASSSVSSSYLHWYQQKSGASPKLWIFRTSNLASGVPARFSGSGSGTSYSLTISSVEAEDAATYYCQQYSGYPLTFGAGTKLELK",binds,binds,–,–,–,–,–,–
"PRO1107 (2C8-LD343 (8)) (other, drug-linker LD343 (MMAE payload) coupled to cysteines of the TCEP-reduced antibody; DAR 7.5 by LC-MS; the chain carrying each drug is not stated) VH: QIQLVQSGAEVKKPGASVKVSCKASGYTFTTYGMSWVRQAPGQGLEWMGWINTHSGVPTYVDEFKGRVTMTLDTSTSTAYMELSSLRSEDTAVYYCARSPFDYGSRGAWFVYWGQGTTVTVSS VL: DVVMTQSPDSLAVSLGERATINCRSSQSIVHNSGDTYLEWYQQKPGQPPKLLIYKVSNRFPGVPDRFSGSGSGTDFTLTISSLQAEDLAVYYCFQGSHVPWTFGGGTKVEIK",–,–,8.2 nM,0.00014 nM,0.0011 nM,0.008 nM,0.02 nM,27.4 nM
